Assay results reported in patent publication US20130280279A1 (Hoffmann-La Roche, published 2013).

T1: digoxigenated protein Dig-BP4
T1 chain: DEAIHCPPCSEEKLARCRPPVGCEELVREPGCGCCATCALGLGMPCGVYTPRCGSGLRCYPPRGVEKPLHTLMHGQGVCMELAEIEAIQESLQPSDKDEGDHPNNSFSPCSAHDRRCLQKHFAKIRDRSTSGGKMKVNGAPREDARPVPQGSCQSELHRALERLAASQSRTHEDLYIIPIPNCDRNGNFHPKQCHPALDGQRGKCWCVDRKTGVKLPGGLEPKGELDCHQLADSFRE

B1: murine <Dig> IgG1 kappa from mouse hybridoma clone 19-11 (antibody, V domains shown)
VH: EVQLVESGGGLVKPGGSLKLSCAVSGFTFSDYAMSWIRQTPENRLEWVASINIGATYAYYPDSVKGRFTISRDNAKNTLFLQMSSLGSEDTAMYYCARPGSPYEYDKAYYSMAYWGPGTSVTVSS
VL: DVQMTQSTSSLSASLGDRVTISCRASQDIKNYLNWYQQKPGGTVKLLIYYSSTLLSGVPSRFSGRGSGTDFSLTITNLEREDIATYFCQQSITLPPTFGGGTKLEIK
notes: also called murine DIG-IgG 19-11; mu<Dig> 19-11
B2: humanized <Dig> IgG (antibody, V domains shown)
VH: QVQLVESGGGLVKPGGSLRLSCAASGFTFSDYAMSWIRQAPGKGLEWVSSINIGATYIYYADSVKGRFTISRDNAKNSLYLQMNSLRAEDTAVYYCARPGSPYEYDKAYYSMAYWGQGTTVTVSS
VL: DIQMTQSPSSLSASVGDRVTITCRASQDIKNYLNWYQQKPGKAPKLLIYYSSTLLSGVPSRFSGSGSGTDFTLTISSLQPEDFATYYCQQSITLPPTFGGGTKVEIKR
notes: also called hu<Dig> IgG; DIGHu2

Legend:
[1] = target: T1, digoxigenated protein Dig-BP4; assay: SPR (Biacore), antibody captured by anti-mouse IgG, DIG-BP4 injected
Description: (§1) Surfaces were blocked with an injection of 1 M ethanolamine/HCl pH 8.5. […] To evaluate the functionality of the recombinant <Dig> derivatives, binding of the recombinant hu<Dig> modules, incl.
(§2) Anti-mouse IgG antibody was immobilized on the surface of a CM5 biosensor chip in the same fashion as described above. […] The samples to be analyzed were diluted in HBS-P (10 mM HEPES, pH 7.4, 150 mM NaCl, 0.005% Surfactant P20) and injected at a flow rate of 5 μl/min. The contact time (association phase) was 3 min for the antibodies at a concentration between 1 and 5 nM. […] The contact time (association phase) was 3 min, the dissociation time (washing with running buffer) 5 min for each molecule at a flow rate of 30 μl/min. All interactions were performed at 25° C. (standard temperature). […] Signals were detected at a rate of one signal per second.

[2] = target: T1, digoxigenated protein Dig-BP4; assay: SPR (Biacore), antibody captured by anti-human IgG, DIG-BP4 injected
Description: as §1, §2

Binder | Kd [1] [nM] | Kd [2] [nM]
B1 | 0.033 | –
B2 | – | < 0.076
